Source: PMC4207043, “Distinct N-terminal regions of the exomer secretory vesicle cargo Chs3 regulate its trafficking itinerary” (Frontiers in Cell and Developmental Biology, 2014)

T1: Recombinant "core" exomer complex (Chs5 residues 1–77 and Chs6-6xHis) (S. cerevisiae, UniProt Q12114 1-77; P40955 1-746)
T1 construct: Chs5, S. cerevisiae, residues 1–77; Chs6, S. cerevisiae; The end of the 6xHis tag is read from the printed name Chs6-6xHis; also called Chs5(1–77)/Chs6-6xHis exomer complex; purified exomer; source: recombinant, purified as described for the Chs5(1–299)/Chs6-6xHis construct (Paczkowski et al., 2012); not shown: His6, C-terminal, kept
T1 sequence (looked up) 1: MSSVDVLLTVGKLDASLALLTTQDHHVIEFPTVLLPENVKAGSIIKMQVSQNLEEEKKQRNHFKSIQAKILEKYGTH
T1 sequence (looked up) 2: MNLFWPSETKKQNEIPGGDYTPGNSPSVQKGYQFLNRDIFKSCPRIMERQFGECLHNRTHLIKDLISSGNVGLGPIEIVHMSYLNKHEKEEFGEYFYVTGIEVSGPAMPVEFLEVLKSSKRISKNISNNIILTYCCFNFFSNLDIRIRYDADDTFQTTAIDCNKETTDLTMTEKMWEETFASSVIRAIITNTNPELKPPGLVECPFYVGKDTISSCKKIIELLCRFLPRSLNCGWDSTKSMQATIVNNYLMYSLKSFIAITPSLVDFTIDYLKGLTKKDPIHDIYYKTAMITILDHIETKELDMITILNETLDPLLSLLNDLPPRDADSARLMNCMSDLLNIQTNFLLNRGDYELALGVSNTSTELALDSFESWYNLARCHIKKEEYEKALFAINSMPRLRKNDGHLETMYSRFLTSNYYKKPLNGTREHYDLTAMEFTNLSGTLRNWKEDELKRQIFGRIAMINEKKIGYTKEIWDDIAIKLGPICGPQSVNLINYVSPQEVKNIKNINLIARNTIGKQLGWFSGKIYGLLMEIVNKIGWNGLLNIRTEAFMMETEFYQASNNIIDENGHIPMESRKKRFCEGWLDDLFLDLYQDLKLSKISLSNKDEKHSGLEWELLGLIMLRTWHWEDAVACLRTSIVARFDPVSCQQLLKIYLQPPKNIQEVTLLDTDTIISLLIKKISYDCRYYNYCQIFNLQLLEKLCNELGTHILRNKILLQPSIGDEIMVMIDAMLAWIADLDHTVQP

T2: Chs6-6xHis (S. cerevisiae, UniProt P40955 1-746)
T2 construct: Chs6, S. cerevisiae; The Chs6 chain of m1, written alone for the pairs that touch in the crystal structure; The end of the tag is read from the printed name; also called His-tagged Chs6; source: recombinant, purified with Chs5(1–77) as described (Paczkowski et al., 2012); not shown: His6, C-terminal, kept
T2 sequence (looked up): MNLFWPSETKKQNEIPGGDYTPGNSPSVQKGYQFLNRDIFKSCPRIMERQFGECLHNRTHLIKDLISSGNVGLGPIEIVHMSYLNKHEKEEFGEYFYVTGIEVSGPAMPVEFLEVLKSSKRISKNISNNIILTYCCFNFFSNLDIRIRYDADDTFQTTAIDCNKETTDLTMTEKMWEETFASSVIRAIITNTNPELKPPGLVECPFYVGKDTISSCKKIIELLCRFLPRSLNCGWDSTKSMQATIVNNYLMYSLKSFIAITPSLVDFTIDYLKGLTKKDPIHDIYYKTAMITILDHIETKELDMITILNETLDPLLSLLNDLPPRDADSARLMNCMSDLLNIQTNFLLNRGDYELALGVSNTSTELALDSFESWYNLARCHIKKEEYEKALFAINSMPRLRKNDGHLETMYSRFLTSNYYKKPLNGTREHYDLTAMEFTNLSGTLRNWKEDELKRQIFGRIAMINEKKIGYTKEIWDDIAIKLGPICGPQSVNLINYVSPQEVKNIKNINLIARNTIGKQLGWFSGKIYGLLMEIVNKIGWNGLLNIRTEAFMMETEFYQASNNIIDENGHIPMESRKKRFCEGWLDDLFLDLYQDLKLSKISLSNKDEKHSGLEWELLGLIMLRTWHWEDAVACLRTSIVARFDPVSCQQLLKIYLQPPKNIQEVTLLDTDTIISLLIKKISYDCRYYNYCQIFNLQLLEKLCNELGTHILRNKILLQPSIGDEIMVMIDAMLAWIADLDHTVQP


What was measured:
[1] = target: T1, Recombinant "core" exomer complex (Chs5 …); test: pull-down; GST-Chs3 fragments held on glutathione resin; 10 μl of 5 mg/ml purified exomer added to resin in 500 μl PBS + 1 mM DTT, ~1 h at 4°C, washed 3 times; exomer detected by Western blot with anti-6xHis antibody (by Coomassie staining in Figure 5C); conditions: both partners purified
Chs6-6xHis = target: T2, Chs6-6xHis; test: crystal structure; Chs5(1–77)/Chs6-6xHis exomer co-crystallised with Chs3 peptide, hanging drop vapor diffusion; 0.3 M ammonium sulfate, 0.1 M citric acid pH 4.0; molar ratio 3.85:1 peptide:exomer; conditions: both partners purified

Binder | binding result [1] | binding result (Chs6-6xHis)
MTGLNGDDPHSVGSGAPHRQGSLVRPERSRLNNP (domain or fragment, S. cerevisiae, UniProt P29465 1-52, looked up, Chs3 (chitin synthase), S. cerevisiae, residues 1–52 lacking residues 10–27; Vector pGEX-2T; the end of GST is read from the printed name GST-Chs3; source: E. coli Rosetta2 (DE3), isolated from cleared lysate on glutathione resin; not shown: GST, N-terminal, kept) [GST-Chs3 fragment, residues 1–52 with residues 10–27 deleted] | binds | –
Chs5(1–77) (domain or fragment, S. cerevisiae, UniProt Q12114 1-77, looked up, Chs5, S. cerevisiae, residues 1–77; The Chs5 chain of m1, written alone for the pair that touches in the crystal structure; also called Chs5 residues 1–77; truncated Chs5; source: recombinant, purified with Chs6-6xHis as described (Paczkowski et al., 2012)) MSSVDVLLTVGKLDASLALLTTQDHHVIEFPTVLLPENVKAGSIIKMQVSQNLEEEKKQRNHFKSIQAKILEKYGTH | – | binds
DDYYLNLNQDEESLLRSR (peptide, UniProt P29465 10-27, looked up, Chs3 (chitin synthase), S. cerevisiae, residues 10–27; only residues 12–25 are visible in the structure; also called peptide of Chs3 residues 10–27; source: synthetic peptide (Genscript, 95% purity)) [Chs3 peptide matching residues 10–27] | – | binds

Other lines, results leading:

binding result [1] | binding result (Chs6-6xHis) | Binder
binds | – | HSVGSGAPHRQGSLVRPERSRLNNP (domain or fragment, S. cerevisiae, UniProt P29465 28-52, looked up, Chs3 (chitin synthase), S. cerevisiae, residues 28–52; Vector pGEX-2T; the end of GST is read from the printed name GST-Chs3; source: E. coli Rosetta2 (DE3), isolated from cleared lysate on glutathione resin; not shown: GST, N-terminal, kept) [GST-Chs3 fragment, residues 28–52]
binds | – | GST-Chs3(1–52) (domain or fragment, S. cerevisiae, UniProt P29465 1-52, looked up, Chs3 (chitin synthase), S. cerevisiae, residues 1–52; Vector pGEX-2T; the end of GST is read from the printed name GST-Chs3; also called Residues 1–52; wild-type GST-Chs3(1–52) fragment; source: E. coli Rosetta2 (DE3), isolated from cleared lysate on glutathione resin; not shown: GST, N-terminal, kept) MTGLNGDDPDDYYLNLNQDEESLLRSRHSVGSGAPHRQGSLVRPERSRLNNP
